Holding throughout (assay): crystal structure
Data set [1] concerns the target Snake Atadenovirus 1 LH3 protein (snake adenovirus 1).
The target of data set [2] is Sorbitol dehydrogenase (BjSDH) from Bradyrhizobium japonicum (Bradyrhizobium japonicum).
The data set “crystal structure” concerns the molecule itself.

With “Snake Atadenovirus 1 LH3 protein (natural protein)”, in data set [1], the stoichiometry N (in general, the number of molecules, sites or subunits per partner or assembly) was found to be 3. “Sorbitol dehydrogenase (BjSDH) from Bradyrhizobium japonicum (enzyme)”: in data set [2], the stoichiometry N was determined as 4.

B1: FliD_(78-405), flagellar cap protein from Pseudomonas aeruginosa PAO1 (domain or fragment)
chain: NEDILKASATQSAVAGTYQIQVNSLATSSKIALQAIADPANAKFNSGTLNISVGDTKLPAITVDSSNNTLAGMRDAINQAGKEAGVSATIITDNSGSRLVLSSTKTGDGKDIKVEVSDDGSGGNTSLSQLAFDPATAPKLSDGAAAGYVTKAANGEITVDGLKRSIASNSVSDVIDGVSFDVKAVTEAGKPITLTVSRDDAGVKDNVKKFVEAYNTLTKFINEQTVVTKVGEDKNPVTGALLGDASVRALVNTMRSELIASNENGSVRNLAALGITTTKDGTLEIDEKKLDKAISADFEGVASYFTGDTGLAKRLGDKMKPYTDAQGI
On to B1, for which the “stoichiometry N” value in the data set “crystal structure” was 6.

Values taken from paper PMC5820184 (Proteins, 2017).
